The results in this text go back to US20050042205A1 (Genentech, Inc., published 2005).

For the test, the target named is rat luteal LH/CG receptor (LH/CG-R) expressed from the cloned cDNA (expression vector pCLHR) in transiently … (rat, UniProt P16235). Put plainly: 125I-CG binding to intact 293 cells transfected with the LH/CG receptor cDNA.

B1: human choriogonadotropin, highly purified (CR-123; 12,780 IU/mg) (ligand)
chain 1: not shown
chain 2: SKEPLRPRCRPINATLAVEKEGCPVCITVNTTICAGYCPTMTRVLQGVLPALPQVVCNYRDVRFESIRLPGCPRGVNPVVSYAVALSCQCALCRRSTTDCGGPKDHPLTCDDPRFQDSSSSKAPPPSLPSPSRLPGPSDTPILPQ
As usually defined, the Kd is the constant that tells how readily two partners part at equilibrium. A lower Kd goes with higher affinity. For the molecule B1, the Kd fell in the range of 0.08 to 0.16 nM.
